In data set [1] the target is penta-His-tagged PfAlba3 (Plasmodium falciparum (3D7)). Kind of data set: AUC.
Data set [2] deals with T1, PfAlba3 (Plasmodium falciparum 3D7, UniProt Q8IJX8 1-107).
T1 sequence: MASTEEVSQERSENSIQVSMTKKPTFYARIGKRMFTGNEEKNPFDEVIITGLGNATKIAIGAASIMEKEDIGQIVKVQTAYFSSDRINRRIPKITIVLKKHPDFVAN
Kind of data set: EMSA. Background: Mobility shift assays separate free from complexed probe on a gel.

Data set [3] concerns the target T2, PfAlba2 (Plasmodium falciparum 3D7, UniProt Q8IDN4 1-211).
T2 sequence: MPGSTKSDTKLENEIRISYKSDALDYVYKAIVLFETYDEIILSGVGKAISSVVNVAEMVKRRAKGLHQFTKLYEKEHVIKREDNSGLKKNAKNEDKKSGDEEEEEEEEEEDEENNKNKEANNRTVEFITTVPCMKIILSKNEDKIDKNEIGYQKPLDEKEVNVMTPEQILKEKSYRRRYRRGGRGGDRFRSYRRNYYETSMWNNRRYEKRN
In words: EMSA.

The target of data set [4] is T3, PfAlba4 (Plasmodium falciparum 3D7, UniProt A0A5K1K8Y8 1-372).
T3 sequence: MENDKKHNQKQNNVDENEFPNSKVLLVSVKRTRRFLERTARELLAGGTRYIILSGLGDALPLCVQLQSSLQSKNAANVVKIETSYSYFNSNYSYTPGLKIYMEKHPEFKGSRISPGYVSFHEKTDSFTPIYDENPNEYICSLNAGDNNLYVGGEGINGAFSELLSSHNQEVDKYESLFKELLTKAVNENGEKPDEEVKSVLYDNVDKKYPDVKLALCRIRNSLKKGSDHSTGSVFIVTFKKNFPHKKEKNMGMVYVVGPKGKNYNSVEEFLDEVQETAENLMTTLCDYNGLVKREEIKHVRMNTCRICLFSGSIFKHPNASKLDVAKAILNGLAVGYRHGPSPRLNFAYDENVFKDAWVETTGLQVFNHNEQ
In words: EMSA.

The target of data set [5] is T4, PfAlba1 (Plasmodium falciparum 3D7, UniProt Q8IAX8 1-248).
T4 sequence: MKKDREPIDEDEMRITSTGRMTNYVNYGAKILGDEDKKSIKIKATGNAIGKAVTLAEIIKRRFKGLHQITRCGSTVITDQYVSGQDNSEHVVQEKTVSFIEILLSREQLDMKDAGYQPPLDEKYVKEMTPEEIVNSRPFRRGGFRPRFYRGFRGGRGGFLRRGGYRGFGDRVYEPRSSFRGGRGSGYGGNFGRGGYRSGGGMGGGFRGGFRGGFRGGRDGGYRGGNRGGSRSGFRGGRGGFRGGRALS
In words: EMSA.

The target of data set [6] is T3, PfAlba4. In words: competition.
Data set [7] addresses T3, PfAlba4. In words: competition. The source holds these as a separate data set.
For data set [8], the target named is T3, PfAlba4. Kind of data set: competition. This is another data set of the same source.
Data set [9] deals with T2, PfAlba2. Kind of data set: EMSA. The source holds these as a separate data set.
Data set [10] deals with T3, PfAlba4. Kind of data set: EMSA. This is another data set of the same source.
In data set [11] the target is T1, PfAlba3. Kind of data set: EMSA. This is another data set of the same source.
In data set [12] the target is T2, PfAlba2. In words: EMSA. This is another data set of the same source.

Read-outs that look alike come from different tables or passages of the source.

Broadly, the stoichiometry N is a count of units in the complex or per binding partner. As for “penta-His-tagged PfAlba3 (natural protein)”, in data set [1], the stoichiometry N turned out to be 2.
For the molecule AAAAAAAAAAAAAAAAAAAAAA (ssRNA) [polyA 22-mer], the binding result in [2], in data set [3], in data set [4] and in data set [5] was “binds” throughout.
Take AAAAAAAAAAAAAAAAAAAAAA (ssRNA) [polyA 22-mer, unlabeled]: in data set [6], the binding result is “binds”.

B1: HSP70 (dsDNA)
DNA 1: GCTAGTGCAAAAGGTTCAAAACCAAATTTACCAGAATCCAAT
DNA 2: ATTGGATTCTGGTAAATTTGGTTTTGAACCTTTTGCACTAGC
For B1, the binding result in [7] is “binds”.

B2: TARE6 fragment 42 bp (F1) (dsDNA)
DNA 1: CCCAAGCTTACTTATATTAGGACCTATATTAGTTATCTGAGG
DNA 2: CCTCAGATAACTAATATAGGTCCTAATATAAGTAAGCTTGGG
For the molecule B2, the binding result in [8] is reported as “binds”.

B3: Actin-II (dsDNA)
DNA 1: TCTGAAGAAGCTGTTGCTTTAGTAGTTGATAATGGAAGTGGT
DNA 2: ACCACTTCCATTATCAACTACTAAAGCAACAGCTTCTTCAGA
In the case of B3, in data set [7], the binding result is on record as “binds”.
For UUUUUUUUUUUUUUUUUUUUUU (ssRNA) [polyU 22-mer], the binding result in data set [9] and in data set [10] was “binds” throughout.

B4: Scr F1 (dsDNA)
DNA 1: GTACTTACTCTAATCTAGTCGTAGTATGTATGCCTCAATGAA
DNA 2: TTCATTGAGGCATACATACTACGACTAGATTAGAGTAAGTAC
B4: the binding result in data set [7] is reported as “binds”.

B5: TARE6 (79 bp) (dsDNA)
DNA 1: CCCAAGCTTACTTATATTAGGACCTATATTAGTTATCTGAGGACCTATATTACTTATTTTAGGACCTATATTGAATTCC
DNA 2: GGAATTCAATATAGGTCCTAAAATAAGTAATATAGGTCCTCAGATAACTAATATAGGTCCTAATATAAGTAAGCTTGGG
With B5, the binding result in [11] and in [12] was “binds” each time.

The values above are taken from PMC3326326.
